Target: diketide-ACP4(Ø) (DEBS ACP4 without linker, loaded with diketide), Q03132
Sequence (Q03132 other isoform, or with tags, fused parts or gaps): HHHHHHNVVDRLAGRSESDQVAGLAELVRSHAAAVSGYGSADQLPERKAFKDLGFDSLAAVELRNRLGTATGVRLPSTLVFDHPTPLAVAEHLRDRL

B1: (5)M2+TE (module 2 of DEBS with the N-terminal linker of module 5, fused to thioesterase) (protein)
chain: MSGDNGMTEEKLRRYLKRTVTELDSVTARLREVEHRAGIAIVGMACRLPGEVDSPERLWELITSGRDSAAEVPDDRGWVPDELMASDAAGTRAHGNFMAGAGDFDAAFFGISPREALAMDPQQRQALETTWEALESAGIPPETLRGSDTGVFVGMSHQGYATGRPRPEDGVDGYLLTGNTASVASGRIAYVLGLEGPALTVDTACSSSLVALHTACGSLRDGDCGLAVAGGVSVMAGPEVFTEFSRQGALSPDGRCKPFSDEADGFGLGEGSAFVVLQRLSDARREGRRVLGVVAGSAVNQDGASNGLSAPSGVAQQRVIRRAWARAGITGADVAVVEAHGTGTRLGDPVEASALLATYGKSRGSSGPVLLGSVKSNIGHAQAAAGVAGVIKVLLGLERGVVPPMLCRGERSGLIDWSSGEIELADGVREWSPAADGVRRAGVSAFGVSGTNAHVIIAEPPEPEPVPQPRRMLPATGVVPVVLSARTGAALRAQAGRLADHLAAHPGIAPADVSWTMARARQHFEERAAVLAADTAEAVHRLRAVADGAVVPGVVTGSASDGGSVFVFPGQGAQWEGMARELLPVPVFAESIAECDAVLSEVAGFSVSEVLEPRPDAPSLERVDVVQPVLFAVMVSLARLWRACGAVPSAVIGHSQGEIAAAVVAGALSLEDGMRVVARRSRAVRAVAGRGSMLSVRGGRSDVEKLLADDSWTGRLEVAAVNGPDAVVVAGDAQAAREFLEYCEGVGIRARAIPVDYASHTAHVEPVRDELVQALAGITPRRAEVPFFSTLTGDFLDGTELDAGYWYRNLRHPVEFHSAVQALTDQGYATFIEVSPHPVLASSVQETLDDAESDAAVLGTLERDAGDADRFLTALADAHTRGVAVDWEAVLGRAGLVDLPGYPFQGKRFWLLPDRTTPRDELDGWFYRVDWTEVPRSEPAALRGRWLVVVPEGHEEDGWTVEVRSALAEAGAEPEVTRGVGGLVGDCAGVVSLLALEGDGAVQTLVLVRELDAEGIDAPLWTVTFGAVDAGSPVARPDQAKLWGLGQVASLERGPRWTGLVDLPHMPDPELRGRLTAVLAGSEDQVAVRADAVRARRLSPAHVTATSEYAVPGGTILVTGGTAGLGAEVARWLAGRGAEHLALVSRRGPDTEGVGDLTAELTRLGARVSVHACDVSSREPVRELVHGLIEQGDVVRGVVHAAGLPQQVAINDMDEAAFDEVVAAKAGGAVHLDELCSDAELFLLFSSGAGVWGSARQGAYAAGNAFLDAFARHRRGRGLPATSVAWGLWAAGGMTGDEEAVSFLRERGVRAMPVPRALAALDRVLASGETAVVVTDVDWPAFAESYTAARPRPLLDRIVTTAPSERAGEPETESLRDRLAGLPRAERTAELVRLVRTSTATVLGHDDPKAVRATTPFKELGFDSLAAVRLRNLLNAATGLRLPSTLVFDHPNASAVAGFLDICCAGTAAISGPHEFTRLAGALRGIAPVRAVPQPGYEEGEPLPSSMAAVAAVQADAVIRTQGDKPFVVAGHSAGALMAYALATELLDRGHPPRGVVLIDVYPPGHQDAMNAWLEELTATLFDRETVRMDDTRLTALGAYDRLTGQWRPRETGLPTLLVSAGEPMGPWPDDSWKPTWPFEHDTVAVPGDHFTMVQEHADAIARHIDAWHHHHHH
For B1, which “kcat/KM, fold decrease against diketide-ACP4(4) with the same module” value is on record?
Its value is “the kcat/KM values drop approximately 70-300 fold”.

— patent US20060110789
